# In patent publication US20260028608A1:
# Read-outs that look alike come from different tables or passages of the source.
# Key:
# Test in all cases: cell-based or functional assay
# [1] = target: XGEVA (Amgen), human IgG2
# [2] = target: Humira (Abbvie), human IgG1
# [3] = target: human IgG4 from Abcam (ab90286 Lot #GR3180469) (human)
# [4] = target: XGEVA (Amgen), human IgG2; remark: listed apart in the source
# [5] = target: human IgG3 from Sigma (15654 Lot #SLBW0899) (human)
# [6] = target: Humira (Abbvie), human IgG1; remark: listed apart in the source
substance,measurement,setting,value
"IdeS (Immunoglobulin G-degrading enzyme of S. pyogenes), control polypeptide pCART124","Conc. of enzyme for cleavage of 1st IgG2 heavy chain, IgG to scIgG (SDS-PAGE)",[1],10 ng/mL
same,"Conc. of enzyme for cleavage of 2nd IgG2 heavy chain, scIgG to F(ab)2 (SDS-PAGE)",[1],400 ng/mL
same,"Approximate EC50 value, i.e. equal amounts of scIgG and F(ab')2 (SDS-PAGE)",[2],0.12 µg/mL
same,"Conc. of enzyme for cleavage of 1st IgG1 heavy chain, IgG to scIgG (SDS-PAGE)",[2],4.5 ng/mL
same,"Conc. of enzyme for cleavage of 2nd IgG1 heavy chain, scIgG to F(ab')2 (SDS-PAGE)",[2],400 ng/mL
same,"IgG1 EC50 F(ab')2 (SDS-PAGE, visual estimate)",[2],0.08 µg/mL
same,"IgG1 EC50 scIgG (SDS-PAGE, visual estimate)",[2],0.001 µg/mL
same,"fold of EC50 F(ab')2 for IgG1, IdeS against N240",[2],5 fold
same,"IgG4 EC50 F(ab')2 (SDS-PAGE, visual estimate)",[3],0.18 µg/mL
same,"IgG4 EC50 scIgG (SDS-PAGE, visual estimate)",[3],0.002 µg/mL
same,"Conc. of enzyme for cleavage of 1st IgG2 heavy chain, IgG to scIgG (SDS-PAGE)",[4],40 ng/mL
same,"Conc. of enzyme for cleavage of 2nd IgG2 heavy chain, scIgG to F(ab)2 (SDS-PAGE)",[4],1100 ng/mL
same,"IgG2 EC50 F(ab')2 (SDS-PAGE, visual estimate)",[4],0.12 µg/mL
same,"IgG2 EC50 scIgG (SDS-PAGE, visual estimate)",[4],0.003 µg/mL
same,"IgG3 EC50 F(ab')2 (SDS-PAGE, visual estimate)",[5],0.015 µg/mL
same,"IgG3 EC50 scIgG (SDS-PAGE, visual estimate)",[5],0.0022 µg/mL
same,"Conc. of enzyme for cleavage of 1st IgG1 heavy chain, IgG to scIgG (SDS-PAGE)",[6],1.5 ng/mL
same,"Conc. of enzyme for cleavage of 2nd IgG1 heavy chain, scIgG to F(ab')2 (SDS-PAGE)",[6],120 ng/mL
